Laboratory results as given in publication PMC8130760.

Target: human IL-15Rα (captured on the surface plasmon resonance sensor chip) (human) (UniProt Q13261)
Assay: SPR

Sequence of UniProt Q13261 (Q13261 31-267): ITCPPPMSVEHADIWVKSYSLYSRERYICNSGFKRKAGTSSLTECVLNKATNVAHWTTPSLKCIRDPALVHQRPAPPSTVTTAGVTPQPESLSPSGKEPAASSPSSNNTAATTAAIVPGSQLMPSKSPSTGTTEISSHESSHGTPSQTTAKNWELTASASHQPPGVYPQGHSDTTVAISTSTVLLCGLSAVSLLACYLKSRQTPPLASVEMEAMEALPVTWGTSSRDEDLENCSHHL

Row | Kd [pM] | koff [s⁻¹] | kon [M⁻¹ s⁻¹] | Substance
1 | 85 | 6.7e-05 | 780000 | NKTR-255, polyethylene glycol-conjugate of recombinant human interleukin-15 (from UniProt P40933 49-162) (ligand)
2 | 19 | 9.3e-05 | 5.1e+06 | recombinant human interleukin-15 (rhIL-15) (from UniProt P40933 49-162) (ligand)
